Test results reported in the RNAGym collection of RNA variant scans (doi:10.1073/pnas.2313332121).
This sample holds only a part of the variants without activity.

B1: TPR 5TU (parent)
chain: GGAUCUUCUCGAUCUAACAAAAAAGACAAAUCUGCCACAAAGCUUGAGAGCAUCUUCGGAUGCAGAGGCGGCAGCCUUCGGUGGCGCGAUAGCGCCAACGUUCUCAACUAUGACACGCAAAACGCGUGCUCCGUUGAAUGGAGUUUAUCAUG

Variants of: B1
Experiment: polymerase ribozyme fitness, log enrichment relative to wild type (log ratio); higher = more active; in vitro selection for triplet polymerase activity
Summary of the method: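 Mutant libraries were PCR-built and transcribed for each subunit of a heterodimeric triplet polymerase ribozyme and selected for one round in triplicate at −7 °C, frozen, before gel excision of extended constructs and streptavidin-bead capture. Input and output libraries were Illumina-sequenced, keeping genotypes with ≥10 input reads and ≥1 read per output. Fitness is a logarithmic ratio of genotype to wild-type enrichment, in base 2, using inverse-variance-weighted replicate averages.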

Variant | polymerase ribozyme fitness (log ratio)
A21C A22U A89U G92C G94U G141A | ≤ -4.2
A21U A52G A66C G128A | ≤ -4.2
A21G A23G G128C | ≤ -4.2
A20U C32A C99A A115G A120U | -4.05
A20C C87G G94C C99A A107U C108G | ≤ -4.2
A21C C51U A106G | -0.144
A20G U104C G117U | -0.102
A21U A29C C95A U101G G126C U135G G143U | ≤ -4.2
A21C C72G A73U C93U C99G G126U | ≤ -4.2
A22C A40U C54U G94A | -0.982
A21G A52C C75G C85U A89G C96G A150G | -3.89
A21U G84A A89G | -1.44
A22C A26U U31C A37C U56C A73C A91C | ≤ -4.2
A21C C87U | 0.0419
A21U C63U G84A | -0.545
A21C C69A | -1.75
A21U G136U | -2.65
A21U A24C A26U U44G A89U A91G G128U G140C U145A | ≤ -4.2
A20G A21U A23U C87A A91C C95A C118G G133U U135A | ≤ -4.2
A21U A37C A49G A52U A91C | ≤ -4.2
A21U U82C | 0.17
A20C C36A C51U U55G C69G A73U G81A C96U G141U | ≤ -4.2
A21U G34A G83C | -2.46
A20U A49C G50C G92U U146G C149U | ≤ -4.2

Variant | polymerase ribozyme fitness (log ratio)
A21U C93A | -1.74
A21G A91G A115U C116A | -3.91
A20U C54G | -2.64
A20G G68U G126U C132A | ≤ -4.2
A21C U56G C85A C87U G92A | -3.51
A20C U55G G67U C72A C85U | ≤ -4.2
A20G G124U | -0.645
A20U U33C G71C G92U C96G A119U C125A | ≤ -4.2
A22C A24U G50C G58A C93U G94U | ≤ -4.2
A22C C27G A37C A73G U146A G152U | ≤ -4.2
A21U G34A C93U C99G C149G | ≤ -4.2
A21U C85A A97U | -2.01
A20G A40C A49C G50A G65C G68A C87U G124U | ≤ -4.2
A21G G46C U82G G88U C95G A98C | ≤ -4.2
A21U A47C A52C A60G C85G C87A A121C | ≤ -4.2
A22C A28C A40G C43U U56G C85U | ≤ -4.2
A20G G117A | -0.0564
A20C G50C U55G C105U | ≤ -4.2
A22C A121U | -0.324
A20U A30G A41G U45A U53G C96G | ≤ -4.2
A20G A21C G94A U146G | -0.812
A20C G50A C76G G80C A91U A98G | ≤ -4.2
A20G G46U G92U | -0.107
A22C A52G G71A C79G C87G C99G C114G U127G C129A A142C | ≤ -4.2

Variant | polymerase ribozyme fitness (log ratio)
A20U G59A G88A C95G U151A | ≤ -4.2
A21U C38A G50C U55G C69A C76A G80A U90G | ≤ -4.2
A21U A73G C129G | -3.49
A22C A52U U82C G86U A97G | -3.83
A21C C96U A122C | -0.0635
A21G C116G U144G | 1.13
A21G A24U U53A G94A | -0.529
A20C A115U | -2.36
A21U C75A A122U | -3.97
A21U A28C U31G A47G C85U C116G C129A G133A | ≤ -4.2
A21C C57G | -0.649
A21G C27G C114U U135G U146A U148G | ≤ -4.2
A20G C38G C69U G86U A91U C99G A137G | ≤ -4.2
A20G G46A U146A | -1.3
A21U C96G G143U | -3.69
A21G A52U C85G A119G C125U A137U | ≤ -4.2
A22C A28U G62A G65C U90A C99U C108U C116G | ≤ -4.2
A21C A26U G140C U146A | ≤ -4.2
A20U G67U C116G | ≤ -4.2
A22C C36U C51A C75G C87U | ≤ -4.2
A20U C54A G92U | -3.48
A21U C75G | -4.03
A20C A113U U127A | ≤ -4.2
A21U C27G C93U A138C A147C | ≤ -4.2

Variant | polymerase ribozyme fitness (log ratio)
A20G A30U C63A C87U U146C | ≤ -4.2
A22C A60G C87U | 0.179
A20G U55G C116U A121C | -0.705
A21U A23U A24C C54U G81A C85U A147C | ≤ -4.2
A20U A29G A52G A89U C96A | ≤ -4.2
A20G A41U C51A U56A C76U G86U G88U A91U C123A U144A C149A | ≤ -4.2
A20U C35U C95A A97G C99A C105U A138G | ≤ -4.2
A21U C96A G136A | 0.203
A22C A26U C43U C76A C93G C118G | ≤ -4.2
A21U A26G G86U C118U | ≤ -4.2
A22C C76A G128U C129U | ≤ -4.2
A21U A26C C69A G84U | -3.67
A20U A113U | -3.74
A22C A26G A30U U45G G74C C103G G140U | ≤ -4.2
A20G A26U U31G A40G C125G U151C G152A | ≤ -4.2
A20C C54U G70C C93A | ≤ -4.2
A20U A113C G133C | ≤ -4.2
A20U A137C | -3.99
A21U C79G C96U C105U U134A | ≤ -4.2
A20C U61G | -1.36
A21U A23G A26G G84U G86U G136U U148G | ≤ -4.2
A20U G67C | ≤ -4.2
A21U A23U A24C C54U G81A C85U | ≤ -4.2
A21U A29C A30C A39G U44A A49C U53A G68A C105U | ≤ -4.2

Variant | polymerase ribozyme fitness (log ratio)
A21C C32G A37U A49G C57U C75G G84A A107C A147U | ≤ -4.2
A22C A52G A106C C118U A142G | -3.06
A21U C85U | -0.171
A20G C93U | -2.59
A21C C93U A97U C116U C123U | -0.404
A21C C93A | -2.02
A21C A52G C103G | -1.21
A21U U55A C93G A97U A115U | ≤ -4.2
A21G C36U C57A | -0.735
A21U G50C G84U | -4.11
A22C C57U A60U C69G | -1.7
A20G U53A | -1.01
A21U A142U | -0.552
A21G C54A G83U C87A C96U A122C | ≤ -4.2
A20C U56A | -0.524
A20C G83C C96G | -1.83
A20C U55A C132A A137G G143A U146G | ≤ -4.2
A20U A29U G71U G84A | ≤ -4.2
A21U U31A C85A | -0.251
A20U G70C C93G | ≤ -4.2
A20U U33G G42U C63G G71A A113G | ≤ -4.2
A21U A39U U61G G92U C108A G141A | ≤ -4.2
A21C G50C G74A C87G U109G | ≤ -4.2
A20U A26C G84U C103G A106C C108G | ≤ -4.2

Variant | polymerase ribozyme fitness (log ratio)
A20G A22C | -0.665
A21U U61A G88A | ≤ -4.2
A20U A60C A73G | -2.81
A21G G58A A122U U145G | 0.687
A20G G83A C129G | -3.83
A20U A30G C38U G59C A60C A73U G92U | ≤ -4.2
A21G C38U A47C U90A C96A A137U | ≤ -4.2
A20G U45C U56G C57U C75A C87G G136C | ≤ -4.2
A21U G83C C95U | -1.58
A21U C87U C96U C131G | ≤ -4.2
A20C G50U G83U | -0.904
A21U G50C C54U C63U G94A | -0.0103
A20G C27G A29U A97G A120G U146G | -4.06
A21U A39U C43G G50C G92A G141U | ≤ -4.2
A21C C36A C95G | -3.86
A21C U61G C85U | 0.133
A21U C43U C99G A120G G126U | ≤ -4.2
A21U G141A | 1.36
A21U G92A | -2.72
A21C U56A C93A A121C U146G C149U | -2.29
A21U G84U | -1.29
A21C C85G C103U G136A | -1.18
A20G C51U G58A C85U A106U | -2.76
A21U U82G C93G | -3.69

Variant | polymerase ribozyme fitness (log ratio)
A21C U61A A89U U90G G100U G136A A138C U144G | ≤ -4.2
A20C C85U | -1.04
A20G A22C G25C C57A G92A C99U C108A | ≤ -4.2
A20U C87U | -2.07
A20G A47G | -0.368
A22C A23G C93G C149U | ≤ -4.2
A20U A41G A49U A52C G86C C96G | ≤ -4.2
A21C C96U | 0.207
A21G C32G G34C U56A G59C U82G G88U C103G G140U | ≤ -4.2
A20U A22U C57A C96G C125U | -3.05
A21U C51U A106U | -2.08
A21G C57A G74A C76G C87U G124U | ≤ -4.2
A22C C27G C99U A106U G140U A147G | ≤ -4.2
A20C A120G | -0.986
A21U A47G C54U G81C G92A C95A C99U | -3.94
A20U A21G A30G C99A | -4.05
A22C C27U C54U C85G A91U G112A A119U A147C A150C | ≤ -4.2
A20C U55A A89G G94C C95A C108G C123G | ≤ -4.2
A20U A150G | -1.81
A21C G25C A52C A89U C118A A119C | -3.52
A21U C54U C63U G68A A73G C93G C108G U148G | ≤ -4.2
A20C G84U | -3.03
A20U C87G A91U | ≤ -4.2
